Reference: patent US20020082235A1

Target: Hoxc-8 (in the transfected C3H10T1/2 and 2T3 cells)
Assay: cell-based or functional assay

Osteopontin promoter activity (OPN-266 luciferase reporter, C3H10T1/2 cells), 3 to 5 fold:
Smad1-L (aa 145-276) fused with a nuclear localization signal
Smad1-M (101-191) fused with a nuclear localization signal
Smad1-NL (amino acids 3-276) fused with a nuclear localization signal
